Publication PMC7060837

Target: taxol-stabilized brain microtubules (UniProt P02550)
Chain of UniProt P02550 (P02550 whole entry, looked up): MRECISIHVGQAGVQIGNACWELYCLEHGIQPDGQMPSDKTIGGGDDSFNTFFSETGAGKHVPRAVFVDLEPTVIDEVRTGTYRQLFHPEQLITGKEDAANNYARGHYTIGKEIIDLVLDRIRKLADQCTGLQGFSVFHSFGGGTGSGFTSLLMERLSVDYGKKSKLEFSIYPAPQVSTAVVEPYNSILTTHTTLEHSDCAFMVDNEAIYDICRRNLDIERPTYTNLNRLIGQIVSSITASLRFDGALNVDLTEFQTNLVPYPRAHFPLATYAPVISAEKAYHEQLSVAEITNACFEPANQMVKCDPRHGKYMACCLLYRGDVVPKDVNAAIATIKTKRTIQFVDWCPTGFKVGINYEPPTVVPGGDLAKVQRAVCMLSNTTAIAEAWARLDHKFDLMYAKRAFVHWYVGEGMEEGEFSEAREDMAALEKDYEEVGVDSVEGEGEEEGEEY

microtubule stimulated ATPase, reduction against wild type: 50%
B1: katanin MEI-1/MEI-2 mutant K119K120R128R130K134AAAAA (complex)
chain 1: MNGDVQSVIRGYLERAQVAKTMSDAGRWNEAGDLLRQLMTDVKSCKISASNRDEHDARNTFLRALEANLKLVQQNVRDEDDLHEAMTRQSGSPEPPADPDVWSKPSPPLPSSSKFGATAAGVGAAGPAPAEISASTSSMSTNPADVKPANPTQGILPQNSAGDSFDASAYDAYIVQAVRGTMATNTENTMSLDDIIGMHDVKQVLHEAVTLPLLVPEFFQGLRSPWKAMVLAGPPGTGKTLIARAIASESSSTFFTVSSTDLSSKWRGDSEKIVRLLFELARFYAPSIIFIDEIDTLGGQRGNSGEHEASRRVKSEFLVQMDGSQNKFDSRRVFVLAATNIPWELDEALRRRFEKRIFIPLPDIDARKKLIEKSMEGTPKSDEINYDDLAARTEGFSGADVVSLCRTAAINVLRRYDTKSLRGGELTAAMESLKAELVRNIDFEAALQAVSPSAGPDTMLKCKEWCDSFGAM
chain 2: MSGLDDRKKLTHAKNRKPLNDIPKSAENRPNTRSTSSRRGAEKDVPITFIGSSRTVKADLPEFTNTRSRRPLHSESKKELSRNPVSRGEEHSSSLPKSSPESSVSVMSSNASLWSACTEEVNKIGVCAKRESRNLRVYKMKSFTSNMEQILSNDNQLAPTVIRILNSRNSWCLNSCHACLTFIMENITSDNYGKRSACLKALASITNSLLDTIIGFASTKTRRIGVDVVAEERAAKATECIHNFRKIVKNRDKIYKQIDQETIYKLDAILERLKKVSSHK
